Data taken from PMC3420232, “The Transmembrane Domains of TNF-Related Apoptosis-Inducing Ligand (TRAIL) Receptors 1 and 2 Co-Regulate Apoptotic Signaling Capacity” (PLoS ONE, 2012).

Target: T1, wild-type human TRAILR2 (human, UniProt O14763 56-440)
T1 construct: TRAIL receptor 2 (TRAILR2, DR5), human, wild type; the printed numbers (transmembrane region ending at 231, GIIIG at 212-216, stalk of about 34 aa) fit the long form; also called DR5; TRICK2; source: immortalized mouse fibroblasts (MF), stably transfected, on cells
Test: radioligand binding; competition on cells: 4x10^5 murine fibroblasts expressing the (chimeric) TRAIL receptor in PFA (PBS, 2% FCS, 0.002% sodium azide), 83 ng/ml 125I-TRAIL with or without unlabeled recombinant human TRAIL (83-5300 ng/ml), 4 hours on ice; cells spun through phthalate oil; 68 kDa used for TRAIL
Details: one partner purified

IC50: 3.5 nM
B1: Flag-tagged recombinant human TRAIL (sTRAIL), unlabeled (ligand, UniProt P50591 95-281, looked up)
chain: TSEETISTVQEKQQNISPLVRERGPQRVAAHITGTRGRSNTLSSPNSKNEKALGRKINSWESSRSGHSFLSNLHLRNGELVIHEKGFYYIYSQTYFRFQEEIKENTKNDKQMVQYIYKYTSYPDPILLMKSARNSCWSKDAEYGLYSIYQGGIFELKENDRIFVSVTNEHLIDMDHEASFFGAFLVG
notes: TRAIL (TNF-related apoptosis-inducing ligand), human, soluble recombinant form (sTRAIL); no removal of the tag is told; also called FLAG-TRAIL; non-labeled TRAIL; source: bought: Axxora (Lörrach, Germany)
